The values below come from patent EP4813396A2 (Amphivena Therapeutics, Inc., dated 2026).

By Kd is commonly meant the equilibrium constant for the complex coming apart. Read a low Kd as higher affinity.

Assay [1] concerns the target T1, human CD33 on cells (human, UniProt P20138 18-364). Briefly: cell-based or functional assay.
For assay [2], the target named is T1, human CD33 on cells. As to the kind of experiment: cell-based or functional assay. The source holds these as a separate data set.
The target in assay [3] is T2, human CD3 on T cells (human, UniProt P07766 23-207). Briefly: cell-based or functional assay.
T2 sequence (P07766 23-207): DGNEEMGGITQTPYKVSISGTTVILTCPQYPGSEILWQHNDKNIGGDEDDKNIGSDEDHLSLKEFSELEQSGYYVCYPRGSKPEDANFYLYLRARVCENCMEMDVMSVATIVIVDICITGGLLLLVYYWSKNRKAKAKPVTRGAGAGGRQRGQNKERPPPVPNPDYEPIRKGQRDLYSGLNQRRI
For assay [4], the target named is T1, human CD33 on cells. Briefly: flow cytometry, HL-60 cells. In general terms: A flow cytometer gives signals particle by particle.
Assay [5] deals with T1, human CD33 on cells. Briefly: flow cytometry, titration on KG-1 cells.
The target in assay [6] is T1, human CD33 on cells. As to the kind of experiment: flow cytometry, titration on HL-60 cells.
For assay [7], the target named is T1, human CD33 on cells. Briefly: flow cytometry, titration on U-937 cells.
Assay [8] concerns the target T2, human CD3 on T cells. Briefly: flow cytometry, human T-cells (as headed in Table 10).
Assay [9] deals with T2, human CD3 on T cells. Briefly: flow cytometry, titration on human CD3+ T cells (Jurkat per paragraph 124/paragraph 125).
Assay [10] concerns the target cynomolgus CD33 on CHO cells (cynomolgus monkey). As to the kind of experiment: flow cytometry; KD on CHO-cynomolgus CD33 cells divided by KD on CHO-human CD33 cells.
The target of assay [11] is T1, human CD33 on cells. As to the kind of experiment: cell-based or functional assay. This is another data set of the same source.
Assay [12] concerns the target T1, human CD33 on cells. Briefly: cell-based or functional assay. The source holds these as a separate data set.
Assay [13] has as its target T1, human CD33 on cells. Briefly: cell-based or functional assay. This is another data set of the same source.

Where a chain is given by its changes, count along the chain named. Where “and” joins values, the source holds several entries; their conditions need not be identical. Equal values may be shown once.

T1 sequence (P20138 18-364): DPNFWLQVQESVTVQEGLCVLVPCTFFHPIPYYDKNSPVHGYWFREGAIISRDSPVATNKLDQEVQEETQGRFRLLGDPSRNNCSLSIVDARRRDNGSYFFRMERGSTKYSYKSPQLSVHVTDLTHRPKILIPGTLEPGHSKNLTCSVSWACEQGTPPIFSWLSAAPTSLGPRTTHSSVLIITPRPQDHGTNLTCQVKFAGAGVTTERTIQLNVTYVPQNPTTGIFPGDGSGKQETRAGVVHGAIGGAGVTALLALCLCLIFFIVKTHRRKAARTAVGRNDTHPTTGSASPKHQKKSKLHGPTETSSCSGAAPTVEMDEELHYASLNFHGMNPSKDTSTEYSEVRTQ

B1: CD33/CD3 tandem diabody 19 (bispecific antibody)
chain: DIQMTQSPSSLSASVGDRVTITCRSSTGAVTTSNYANWVQQKPGKAPKALIGGTNKRAPGVPSRFSGSLIGDKATLTISSLQPEDFATYYCALWYSNLWVFGQGTKVEIKGGSGGSQVQLVQSGAEVKKPGASVKVSCKASGYTFTSYYMHWVRQAPGQGLEWMGIINPSGGSTSYAQKFQGRVTMTRDTSTSTVYMELSSLRSEDTAVYYCARDVVPAAIDYYGMDVWGQGTTVTVSSGGSGQSVLTQPPSASGTPGQRVTISCSGSSSNIGSNTVNWYQQLPGTAPKLLIYSDNQRPSGVPDRFSGSKSGSSASLAISGLQSDDEADYYCATWDDSLNGAVFGGGTKLTVLGGSGGSEVQLVESGGGLVQPGGSLRLSCAASGFTFSTYAMNWVRQAPGKGLEWVGRIRSKYNNYATYYADSVKDRFTISRDDSKNSLYLQMNSLKTEDTAVYYCARHGNFGNSYVSYFAYWGQGTLVTVSSAAAGSHHHHHH
notes: Non-covalent homodimer; domain order 1; also called TandAb 19
Consider B1, for which, in the assay with human CD33 on cells [1], the “IC50, lysis of KG-1 cells with human T cells (E:T 5:1, 24 h)” value (“IC50, lysis … (E:T 5:1, 24 h)” for short) was roughly 5 pM. Besides, the “EC50 on HL-60 [pM] (cytotoxicity)” value with human CD33 on cells [2] came to 5.7 pM. Further, the “CD25 Induction EC50 (pM)” value with human CD3 on T cells [3] worked out at 9 pM. Besides, in the assay with human CD3 on T cells [3], the “CD69 Induction EC50 (pM)” value was 5 pM. Moreover, the “T cell Proliferation in PBMC EC50 (pM)” value in the assay with human CD3 on T cells [3] is 6 pM. The dissociation constant (Kd) in the assay with human CD33 on cells [4] came out at 2800 pM; in the assay with human CD33 on cells [5], 3600 pM; in the assay with human CD33 on cells [6], 2800 pM; with human CD33 on cells [7], 5400 pM; with human CD3 on T cells [8], 6300 pM; with human CD3 on T cells [9], 6300 pM. The KD ratio cynoCD33/ huCD33 in [10] came out at 37.3.

B2: CD33/CD3 tandem diabody 12 (bispecific antibody)
chain: DIQMTQSPSSLSASVGDRVTITCRSSTGAVTTSNYANWVQQKPGKAPKALIGGTNKRAPGVPSRFSGSLIGDKATLTISSLQPEDFATYYCALWYSNLWVFGQGTKVEIKGGSGGSQVQLVQSGAEVKKPGASVKVSCKASGYTFTSYDINWVRQAPGQGLEWMGWMNPNSGNTGFAQKFQGRVTMTRDTSTSTVYMELSSLRSEDTAVYYCARDRAVTDYYYGMDVWGQGTLVTVSSGGSGQSVLTQPPSASGTPGQRVTISCSGSRSNIGSNTVNWYQQLPGTAPKLLIYGNNQRPSGVPDRFSGSKSGTSASLAISGLQSEDEADYYCATWDDSLIGWVFGGGTKLTVLGGSGGSEVQLVESGGGLVQPGGSLRLSCAASGFTFSTYAMNWVRQAPGKGLEWVGRIRSKYNNYATYYADSVKDRFTISRDDSKNSLYLQMNSLKTEDTAVYYCARHGNFGNSYVSYFAYWGQGTLVTVSSAAAGSHHHHHH
notes: Non-covalent homodimer; domain order 1; also called TandAb 12
As to B2, the “IC50, lysis … (E:T 5:1, 24 h)” value in the assay with human CD33 on cells [1] is roughly 0.01 pM. The “EC50 on HL-60 [pM] (cytotoxicity)” value with human CD33 on cells [2] was 1.3 pM. In addition, in the assay with human CD33 on cells [11], the “EC50 [pM (pg/mL)] on human CD33+ target cell lines: HL-60 (cytotoxicity, E:T 5:1, 20-24 h)” value was 1.3 pM and 137 pg/mL; the “EC50 [pM (pg/mL)] on human CD33+ target cell lines: KG-1 (cytotoxicity, E:T 5:1, 20-24 h)” value is 1.2 pM and 126 pg/mL; the “EC50 [pM (pg/mL)] on human CD33+ target cell lines: U-937 (cytotoxicity, E:T 5:1, 20-24 h)” value was 0.8 pM and 84 pg/mL; the “EC50 [pM (pg/mL)] on human CD33+ target cell lines: mean of HL-60, U-937, KG-1” value is 1.1 pM and 116 pg/mL. Besides, in the assay with human CD3 on T cells [3], the “CD25 Induction EC50 (pM)” value stood at 6 pM, the “CD69 Induction EC50 (pM)” value was 3 pM and the “T cell Proliferation in PBMC EC50 (pM)” value amounted to 2 pM. In addition, in the assay with human CD33 on cells [12], the “EC50 [pM] mean, cytotoxicity on BV-173 cells” value stood at 1.4 pM; the “EC50 [pM] mean, cytotoxicity on CHO-CD33 cells” value is 11.8 pM; the “EC50 [pM] mean, cytotoxicity on HL-60 cells” value stood at 1.4 pM; the “EC50 [pM] mean, cytotoxicity on K562 cells” value was found to be 4.5 pM. In addition, in the assay with human CD33 on cells [12], the “EC50 [pM] mean, cytotoxicity on KASUMI-1 cells” value was 1.3 pM; the “EC50 [pM] mean, cytotoxicity on KG-1 cells” value amounted to 1 pM; the “EC50 [pM] mean, cytotoxicity on RPMI-8226 cells” value was 14 pM; the “EC50 [pM] mean, cytotoxicity on THP-1 cells” value came out at 1.9 pM. For the same molecule, the “EC50 [pM] mean, cytotoxicity on U-937 cells” value with human CD33 on cells [12] is 0.9 pM. The molecule further showed a Kd in the assay with human CD33 on cells [4] of 300 pM. This molecule gave a Kd with human CD33 on cells [5] of 900 pM. Besides, the Kd with human CD33 on cells [6] is 300 pM. Further, in the assay with human CD33 on cells [7], the Kd stood at 500 pM. For the same molecule, the Kd with human CD3 on T cells [8] turned out to be 1500 pM. This molecule displayed a Kd with human CD3 on T cells [9] of 1500 pM. In addition, the KD ratio cynoCD33/ huCD33 in [10] came to 1.7.

B3: CD33/CD3 tandem diabody 16 (bispecific antibody)
chain: B2 chain with V218N, Y222S, Y223L
notes: Non-covalent homodimer; domain order 1; also called TandAb 16
With B3, in the assay with human CD33 on cells [1], the “IC50, lysis of KG-1 cells (separate experiment)” value turned out to be 5 pM and the “IC50, lysis … (E:T 5:1, 24 h)” value was roughly 0.5 pM. In addition, the “EC50 on HL-60 [pM] (cytotoxicity)” value with human CD33 on cells [2] was found to be 1.5 pM. Besides, in the assay with human CD33 on cells [11], the “EC50 [pM (pg/mL)] on human CD33+ target cell lines: HL-60 (cytotoxicity, E:T 5:1, 20-24 h)” value is 1.5 pM and 158 pg/mL; the “EC50 [pM (pg/mL)] on human CD33+ target cell lines: KG-1 (cytotoxicity, E:T 5:1, 20-24 h)” value was 1.8 pM and 189 pg/mL; the “EC50 [pM (pg/mL)] on human CD33+ target cell lines: U-937 (cytotoxicity, E:T 5:1, 20-24 h)” value was 1.9 pM and 200 pg/mL; the “EC50 [pM (pg/mL)] on human CD33+ target cell lines: mean of HL-60, U-937, KG-1” value is 1.7 pM and 179 pg/mL. Further, in the assay with human CD3 on T cells [3], the “CD25 Induction EC50 (pM)” value came out at 1 pM, the “CD69 Induction EC50 (pM)” value turned out to be 2 pM and the “T cell Proliferation in PBMC EC50 (pM)” value came to 3 pM. Besides, in the assay with human CD33 on cells [12], the “EC50 [pM] mean, cytotoxicity on BV-173 cells” value worked out at 3.2 pM; the “EC50 [pM] mean, cytotoxicity on CHO-CD33 cells” value was determined as 24 pM; the “EC50 [pM] mean, cytotoxicity on HL-60 cells” value amounted to 1.6 pM; the “EC50 [pM] mean, cytotoxicity on K562 cells” value worked out at 4.8 pM. For the same molecule, in the assay with human CD33 on cells [12], the “EC50 [pM] mean, cytotoxicity on KASUMI-1 cells” value was determined as 2.4 pM; the “EC50 [pM] mean, cytotoxicity on KG-1 cells” value is 1.9 pM; the “EC50 [pM] mean, cytotoxicity on RPMI-8226 cells” value came to 2.8 pM; the “EC50 [pM] mean, cytotoxicity on THP-1 cells” value came to 6 pM. Also, the “EC50 [pM] mean, cytotoxicity on U-937 cells” value with human CD33 on cells [12] turned out to be 1.3 pM. Besides, in the assay with human CD33 on cells [13], the “EC50 [pM], calcein release, HL-60 targets, E:T 25:1, incubation 30 min” value is 4.8 pM; the “EC50 [pM], calcein release, HL-60 targets, E:T 25:1, incubation 60 min” value is 2.5 pM; the “EC50 [pM], calcein release, HL-60 targets, E:T 25:1, incubation 120 min” value is 1.6 pM; the “EC50 [pM], calcein release, HL-60 targets, E:T 25:1, incubation 180 min” value was 1.6 pM. In the assay with human CD33 on cells [13], the “EC50 [pM], calcein release, HL-60 targets, E:T 25:1, incubation 240 min” value is 1.5 pM and the “EC50 [pM], calcein release, HL-60 targets, E:T 25:1, incubation 300 min” value is 1.6 pM. Moreover, the affinity in the assay with human CD33 on cells [4], expressed as Kd, was 300 pM. Besides, the Kd in the assay with human CD33 on cells [5] was found to be 200 pM. The molecule also gave a Kd with human CD33 on cells [6] of 300 pM. Also, the Kd with human CD33 on cells [7] was 300 pM. This molecule also showed a dissociation constant (Kd) in the assay with human CD3 on T cells [8] of 5100 pM. This molecule also returned a Kd in the assay with human CD3 on T cells [9] of 2100 pM. In addition, the KD ratio cynoCD33/ huCD33 in assay [10] was 1.4.
